Assay [1] concerns the target T1, mANGPTL3(17-240)-His (Mus musculus, UniProt Q9R182 17-240).
T1 sequence: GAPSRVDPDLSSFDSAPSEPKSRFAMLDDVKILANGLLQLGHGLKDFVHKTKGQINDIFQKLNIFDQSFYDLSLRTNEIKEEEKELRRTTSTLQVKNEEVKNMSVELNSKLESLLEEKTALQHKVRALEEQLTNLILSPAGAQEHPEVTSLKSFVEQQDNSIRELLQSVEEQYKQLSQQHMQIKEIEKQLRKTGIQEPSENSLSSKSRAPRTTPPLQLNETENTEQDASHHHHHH
Kind of assay: cell-based or functional assay.

Another assay concerns the target T2, hANGPTL3(17-169)-mFc (human).
T2 chain: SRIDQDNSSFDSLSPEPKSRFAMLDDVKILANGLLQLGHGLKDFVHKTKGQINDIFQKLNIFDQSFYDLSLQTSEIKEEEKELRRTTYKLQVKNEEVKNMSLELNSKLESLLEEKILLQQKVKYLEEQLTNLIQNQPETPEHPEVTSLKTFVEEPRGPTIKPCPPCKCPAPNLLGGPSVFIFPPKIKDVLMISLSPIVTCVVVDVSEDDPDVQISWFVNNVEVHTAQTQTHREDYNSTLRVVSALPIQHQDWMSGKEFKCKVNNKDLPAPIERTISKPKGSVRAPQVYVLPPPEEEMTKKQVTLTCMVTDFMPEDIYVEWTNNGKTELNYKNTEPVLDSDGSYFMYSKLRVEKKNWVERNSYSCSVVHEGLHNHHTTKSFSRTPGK
Kind of assay: cell-based or functional assay.

Assay [2] has as its target T3, hANGPTL3(17-170)-His (human, UniProt Q9Y5C1 17-170).
T3 construct: also called N-terminal coiled-coil domain of hANGPTL3 with a C-terminal hexahistidine tag; Human ANGPTL3 (17-170)-His
T3 sequence: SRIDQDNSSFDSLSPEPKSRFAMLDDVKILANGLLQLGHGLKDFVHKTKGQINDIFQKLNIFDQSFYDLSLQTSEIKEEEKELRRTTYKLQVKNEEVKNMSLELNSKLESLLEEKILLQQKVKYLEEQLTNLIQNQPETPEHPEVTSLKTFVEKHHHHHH
Kind of assay: SPR Biacore, antigen captured, 25C, pH 7.2, PBSP. As for the experimental part:
(§1) All kinetic binding experiments were performed at 25° C. or 37° C. on a BIACORE™ T200 label-free molecular interaction instrument (GE Healthcare) using a CM5 sensor chip. Briefly, an antigen capture surface was generated by covalently coupling either an anti-mouse IgG-specific antibody (anti-mFc; GE Healthcare; catalog #BR-1008-38) or an anti-pentahistidine-specific antibody (Qiagen; catalog #34660) to the surface of a CM5 sensor chip using a standard amine coupling method.

The next assay concerns the target T4, hANGPTL3(17-460)-His (human, UniProt Q9Y5C1 17-460).
T4 construct: Bought protein (R&D Systems); also called full-length mature human ANGPTL3 with a C-terminal decahistidine tag; Human ANGPTL3 (17-460)-His
T4 sequence: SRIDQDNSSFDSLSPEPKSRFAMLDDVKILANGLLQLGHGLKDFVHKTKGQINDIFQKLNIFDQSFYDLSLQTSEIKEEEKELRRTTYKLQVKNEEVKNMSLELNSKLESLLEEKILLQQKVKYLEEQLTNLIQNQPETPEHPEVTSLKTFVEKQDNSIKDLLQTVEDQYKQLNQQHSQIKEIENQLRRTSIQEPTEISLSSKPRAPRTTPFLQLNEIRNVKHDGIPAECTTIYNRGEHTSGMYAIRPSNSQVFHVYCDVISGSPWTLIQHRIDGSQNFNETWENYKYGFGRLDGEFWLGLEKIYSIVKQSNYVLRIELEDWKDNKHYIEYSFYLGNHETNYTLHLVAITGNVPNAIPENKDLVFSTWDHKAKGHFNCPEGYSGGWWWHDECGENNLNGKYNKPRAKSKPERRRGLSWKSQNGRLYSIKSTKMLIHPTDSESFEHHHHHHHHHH
Kind of assay: SPR Biacore, antigen captured, 25C, pH 7.2, PBSP. On the procedure: as §1

The target in another assay is T5, MfANGPTL3(17-170)-mmH (Macaca fascicularis).
T5 construct: also called N-terminal coiled-coil domain of ANGPTL3 from Macaca fascicularis with myc-myc-hexahistidine tag; Monkey ANGPTL3 (17-170)-mmH
T5 chain: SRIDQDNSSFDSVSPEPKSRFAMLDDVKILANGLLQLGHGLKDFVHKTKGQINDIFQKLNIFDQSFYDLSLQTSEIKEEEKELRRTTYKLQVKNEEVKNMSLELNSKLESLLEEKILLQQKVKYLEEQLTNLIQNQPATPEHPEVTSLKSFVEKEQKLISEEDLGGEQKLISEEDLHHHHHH
Kind of assay: SPR Biacore, antigen captured, 25C, pH 7.2, PBSP. On the procedure: as §1
(Surface plasmon resonance follows binding to a sensor surface in real time, without labels.)

Assay [3] concerns the target T1, mANGPTL3(17-240)-His. Kind of assay: SPR Biacore, antigen captured, 25C, pH 7.4, HBS-EP. On the procedure: as §1
In assay [4] the target is T3, hANGPTL3(17-170)-His. Kind of assay: SPR Biacore, antigen captured, 25C, pH 7.4, HBS-EP. On the procedure: as §1

As usually defined, the Kd is the concentration at which binding is half-saturated. In general, koff refers to the first-order rate constant of dissociation. Lower therefore signals slow dissociation. The term kon denotes the second-order rate constant of association.

B1: H4H1276S (antibody, IgG4, V domains shown)
VH: EVQLVESGGGVIQPGGSLRLSCAASGFTFDDYAMNWVRQGPGKGLEWVSAISGDGGSTYYADSVKGRFTISRDNSKNSLYLQMNSLRAEDTAFFYCAKDLRNTIFGVVIPDAFDIWGQGTMVTVSS
VL: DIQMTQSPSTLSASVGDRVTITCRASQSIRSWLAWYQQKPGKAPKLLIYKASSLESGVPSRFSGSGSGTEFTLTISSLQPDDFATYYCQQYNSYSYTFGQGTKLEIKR
On to B1, for which the “IC50, LPL bioassay, 500 nM constant mANGPTL3(17-240)-His” value in the assay with mANGPTL3(17-240)-His [1] turned out to be 64 nM. Moreover, the “IC50, LPL bioassay, 80 nM constant hANGPTL3(17-169)-mFc” value with hANGPTL3(17-169)-mFc came to 33 nM. Besides, the Kd was 1.09 nM with hANGPTL3(17-170)-His [2]; 0.67 nM in the assay with hANGPTL3(17-460)-His; 0.37 nM with MfANGPTL3(17-170)-mmH; 0.458 nM with mANGPTL3(17-240)-His [3]; 0.938 nM with hANGPTL3(17-170)-His [4]. Moreover, the koff was found to be 0.0011 s⁻¹ in the assay with hANGPTL3(17-170)-His [2]; 0.000402 s⁻¹ in the assay with hANGPTL3(17-460)-His; 0.000538 s⁻¹ with MfANGPTL3(17-170)-mmH; 0.000307 s⁻¹ in the assay with mANGPTL3(17-240)-His [3]; 0.000912 s⁻¹ with hANGPTL3(17-170)-His [4]. The kon with hANGPTL3(17-170)-His [2] was 1e+06 M⁻¹ s⁻¹; in the assay with hANGPTL3(17-460)-His it was 599000 M⁻¹ s⁻¹; with MfANGPTL3(17-170)-mmH it was 1.45e+06 M⁻¹ s⁻¹; in the assay with mANGPTL3(17-240)-His [3], 670000 M⁻¹ s⁻¹; with hANGPTL3(17-170)-His [4] it was 973000 M⁻¹ s⁻¹. Moreover, the t1/2 with hANGPTL3(17-170)-His [2] worked out at 10.5 min; with hANGPTL3(17-460)-His it was 28.8 min; in the assay with MfANGPTL3(17-170)-mmH, 21.5 min; in the assay with mANGPTL3(17-240)-His [3] it was 37.6 min; with hANGPTL3(17-170)-His [4], 12.7 min.

These data come from US20150197564A1 (Regeneron, published 2015).
